Experimental data as given in the MegaScale stability set (Tsuboyama et al. 2023).

B1: 2M8U (parent)
chain: TKAQVIEAFKVFDRDGNGYVTVDYLRKVLNELGDMMPADEIEEMIYEADPQNSGYVQYETFVGMLFL

Variants of: B1
Test: folding stability dG (cDNA display proteolysis); higher = more stable
Conditions: PBS, room temperature

Variant | folding stability dG
TKAQVIEAFKVFDRDGNGYVTVDYLRKVLNELGDMMPAREIEEMIYEADPQNSGYVQYETFVGMLFL [D39R] | 3.75 kcal/mol
TKAQVIEAFKVFDRDGNGYVTVDYLRKVLNELGDMMPAMEIEEMIYEADPQNSGYVQYETFVGMLFL [D39M] | 3.92 kcal/mol
TKAQVIEAFKVFDRDGNGYVTVDYLRKVLNELGDMMPAIEIEEMIYEADPQNSGYVQYETFVGMLFL [D39I] | 3.83 kcal/mol
TKAQVIEAFKVFDRDGNGYVTVDYLRKVLNELGDMMPAPEIEEMIYEADPQNSGYVQYETFVGMLFL [D39P] | 3.68 kcal/mol
TKAQVIEAFKVFDRDGNGYVTVDYLRKVLNELGDMMPAHEIEEMIYEADPQNSGYVQYETFVGMLFL [D39H] | 3.71 kcal/mol
TKAQVIEAFKVFDRDGNGYVTVDYLRKVLNELGDMMPAGEIEEMIYEADPQNSGYVQYETFVGMLFL [D39G] | 3.77 kcal/mol
TKAQVIEAFKVFDRDGNGYVTVDYLRKVLNELGDMMPAYEIEEMIYEADPQNSGYVQYETFVGMLFL [D39Y] | 3.86 kcal/mol
TKAQVIEAFKVFDRDGNGYVTVDYLRKVLNELGDMMPATEIEEMIYEADPQNSGYVQYETFVGMLFL [D39T] | 3.66 kcal/mol
TKAQVIEAFKVFDRDGNGYVTVDYLRKVLNELGDMMPAQEIEEMIYEADPQNSGYVQYETFVGMLFL [D39Q] | 3.59 kcal/mol
TKAQVIEAFKVFDRDGNGYVTVDYLRKVLNELGDMMPAKEIEEMIYEADPQNSGYVQYETFVGMLFL [D39K] | 3.79 kcal/mol
TKAQVIEAFKVFDRDGNGYVTVDYLRKVLNELGDMMPAAEIEEMIYEADPQNSGYVQYETFVGMLFL [D39A] | 3.7 kcal/mol
TKAQVIEAFKVFDRDGNGYVTVDYLRKVLNELGDMMPAEEIEEMIYEADPQNSGYVQYETFVGMLFL [D39E] | 3.59 kcal/mol
TKAQVIEAFKVFDRDGNGYVTVDYLRKVLNELGDMMPASEIEEMIYEADPQNSGYVQYETFVGMLFL [D39S] | 3.52 kcal/mol
TKAQVIEAFKVFDRDGNGYVTVDYLRKVLNELGDMMPALEIEEMIYEADPQNSGYVQYETFVGMLFL [D39L] | 3.89 kcal/mol
TKAQVIEAFKVFDRDGNGYVTVDYLRKVLNELGDMMPAWEIEEMIYEADPQNSGYVQYETFVGMLFL [D39W] | 3.65 kcal/mol
TKAQVIEAFKVFDRDGNGYVTVDYLRKVLNELGDMMPAFEIEEMIYEADPQNSGYVQYETFVGMLFL [D39F] | 4.09 kcal/mol
TKAQVIEAFKVFDRDGNGYVTVDYLRKVLNELGDMMPAVEIEEMIYEADPQNSGYVQYETFVGMLFL [D39V] | 4.01 kcal/mol
TKAQVIEAFKVFDRDGNGYVTVDYLRKVLNELGDMMPACEIEEMIYEADPQNSGYVQYETFVGMLFL [D39C] | 3.74 kcal/mol
TKAQVIEAFKVFDRDGNGYVTVDYLRKVLNELGDMMPANEIEEMIYEADPQNSGYVQYETFVGMLFL [D39N] | 3.68 kcal/mol
TKAQVIEAFKVFDRDGNGYVTVDYLRKVLNELGDMMPADELEEMIYEADPQNSGYVQYETFVGMLFL [I41L] | 3.83 kcal/mol
TKAQVIEAFKVFDRDGNGYVTVDYLRKVLNELGDMMPADEPEEMIYEADPQNSGYVQYETFVGMLFL [I41P] | 1.98 kcal/mol
TKAQVIEAFKVFDRDGNGYVTVDYLRKVLNELGDMMPADEQEEMIYEADPQNSGYVQYETFVGMLFL [I41Q] | 2.78 kcal/mol
TKAQVIEAFKVFDRDGNGYVTVDYLRKVLNELGDMMPADEMEEMIYEADPQNSGYVQYETFVGMLFL [I41M] | 3.57 kcal/mol
TKAQVIEAFKVFDRDGNGYVTVDYLRKVLNELGDMMPADEHEEMIYEADPQNSGYVQYETFVGMLFL [I41H] | 2.52 kcal/mol
TKAQVIEAFKVFDRDGNGYVTVDYLRKVLNELGDMMPADEVEEMIYEADPQNSGYVQYETFVGMLFL [I41V] | 3.4 kcal/mol
TKAQVIEAFKVFDRDGNGYVTVDYLRKVLNELGDMMPADEEEEMIYEADPQNSGYVQYETFVGMLFL [I41E] | 2.29 kcal/mol
TKAQVIEAFKVFDRDGNGYVTVDYLRKVLNELGDMMPADEWEEMIYEADPQNSGYVQYETFVGMLFL [I41W] | 3.72 kcal/mol

Variant | folding stability dG
TKAQVIEAFKVFDRDGNGYVTVDYLRKVLNELGDMMPADEKEEMIYEADPQNSGYVQYETFVGMLFL [I41K] | 2.59 kcal/mol
TKAQVIEAFKVFDRDGNGYVTVDYLRKVLNELGDMMPADEYEEMIYEADPQNSGYVQYETFVGMLFL [I41Y] | 3.35 kcal/mol
TKAQVIEAFKVFDRDGNGYVTVDYLRKVLNELGDMMPADEGEEMIYEADPQNSGYVQYETFVGMLFL [I41G] | 2.29 kcal/mol
TKAQVIEAFKVFDRDGNGYVTVDYLRKVLNELGDMMPADEDEEMIYEADPQNSGYVQYETFVGMLFL [I41D] | 1.96 kcal/mol
TKAQVIEAFKVFDRDGNGYVTVDYLRKVLNELGDMMPADECEEMIYEADPQNSGYVQYETFVGMLFL [I41C] | 2.87 kcal/mol
TKAQVIEAFKVFDRDGNGYVTVDYLRKVLNELGDMMPADEFEEMIYEADPQNSGYVQYETFVGMLFL [I41F] | 3.5 kcal/mol
TKAQVIEAFKVFDRDGNGYVTVDYLRKVLNELGDMMPADEAEEMIYEADPQNSGYVQYETFVGMLFL [I41A] | 2.86 kcal/mol
TKAQVIEAFKVFDRDGNGYVTVDYLRKVLNELGDMMPADESEEMIYEADPQNSGYVQYETFVGMLFL [I41S] | 2.59 kcal/mol
TKAQVIEAFKVFDRDGNGYVTVDYLRKVLNELGDMMPADEREEMIYEADPQNSGYVQYETFVGMLFL [I41R] | 3.03 kcal/mol
TKAQVIEAFKVFDRDGNGYVTVDYLRKVLNELGDMMPADETEEMIYEADPQNSGYVQYETFVGMLFL [I41T] | 2.72 kcal/mol
TKAQVIEAFKVFDRDGNGYVTVDYLRKVLNELGDMMPADENEEMIYEADPQNSGYVQYETFVGMLFL [I41N] | 2.17 kcal/mol
TKAQVIEAFKVFDRDGNGYVTVDYLRKVLNELGDMMPYDEIEEMIYEADPQNSGYVQYETFVGMLFL [A38Y] | 3.5 kcal/mol
TKAQVIEAFKVFDRDGNGYVTVDYLRKVLNELGDMMPADPIEEMIYEADPQNSGYVQYETFVGMLFL [E40P] | 3.22 kcal/mol
TKAQVIEAFKVFDRDGNGYVTVDYLRKVLNELGDMMPADRIEEMIYEADPQNSGYVQYETFVGMLFL [E40R] | 3.96 kcal/mol
TKAQVIEAFKVFDRDGNGYVTVDYLRKVLNELGDMMPADQIEEMIYEADPQNSGYVQYETFVGMLFL [E40Q] | 3.64 kcal/mol
TKAQVIEAFKVFDRDGNGYVTVDYLRKVLNELGDMMPADGIEEMIYEADPQNSGYVQYETFVGMLFL [E40G] | 4.01 kcal/mol
TKAQVIEAFKVFDRDGNGYVTVDYLRKVLNELGDMMPADFIEEMIYEADPQNSGYVQYETFVGMLFL [E40F] | 3.99 kcal/mol
TKAQVIEAFKVFDRDGNGYVTVDYLRKVLNELGDMMPADCIEEMIYEADPQNSGYVQYETFVGMLFL [E40C] | 3.85 kcal/mol
TKAQVIEAFKVFDRDGNGYVTVDYLRKVLNELGDMMPADKIEEMIYEADPQNSGYVQYETFVGMLFL [E40K] | 3.91 kcal/mol
TKAQVIEAFKVFDRDGNGYVTVDYLRKVLNELGDMMPADHIEEMIYEADPQNSGYVQYETFVGMLFL [E40H] | 4.01 kcal/mol
TKAQVIEAFKVFDRDGNGYVTVDYLRKVLNELGDMMPADNIEEMIYEADPQNSGYVQYETFVGMLFL [E40N] | 4.09 kcal/mol
TKAQVIEAFKVFDRDGNGYVTVDYLRKVLNELGDMMPADWIEEMIYEADPQNSGYVQYETFVGMLFL [E40W] | 3.75 kcal/mol
TKAQVIEAFKVFDRDGNGYVTVDYLRKVLNELGDMMPADIIEEMIYEADPQNSGYVQYETFVGMLFL [E40I] | 3.91 kcal/mol
TKAQVIEAFKVFDRDGNGYVTVDYLRKVLNELGDMMPADTIEEMIYEADPQNSGYVQYETFVGMLFL [E40T] | 3.78 kcal/mol
TKAQVIEAFKVFDRDGNGYVTVDYLRKVLNELGDMMPADAIEEMIYEADPQNSGYVQYETFVGMLFL [E40A] | 3.65 kcal/mol
TKAQVIEAFKVFDRDGNGYVTVDYLRKVLNELGDMMPADSIEEMIYEADPQNSGYVQYETFVGMLFL [E40S] | 3.7 kcal/mol
TKAQVIEAFKVFDRDGNGYVTVDYLRKVLNELGDMMPADVIEEMIYEADPQNSGYVQYETFVGMLFL [E40V] | 3.74 kcal/mol

Variant | folding stability dG
TKAQVIEAFKVFDRDGNGYVTVDYLRKVLNELGDMMPADLIEEMIYEADPQNSGYVQYETFVGMLFL [E40L] | 3.89 kcal/mol
TKAQVIEAFKVFDRDGNGYVTVDYLRKVLNELGDMMPADMIEEMIYEADPQNSGYVQYETFVGMLFL [E40M] | 3.66 kcal/mol
TKAQVIEAFKVFDRDGNGYVTVDYLRKVLNELGDMMPADDIEEMIYEADPQNSGYVQYETFVGMLFL [E40D] | 3.69 kcal/mol
TKAQVIEAFKVFDRDGNGYVTVDYLRKVLNELGDMMPADYIEEMIYEADPQNSGYVQYETFVGMLFL [E40Y] | 4.06 kcal/mol
TKAQVIEAFKVFDRDGNGYVTVDYLRKVLNELGDMMPADEIQEMIYEADPQNSGYVQYETFVGMLFL [E42Q] | 3.37 kcal/mol
TKAQVIEAFKVFDRDGNGYVTVDYLRKVLNELGDMMPADEIWEMIYEADPQNSGYVQYETFVGMLFL [E42W] | 3.1 kcal/mol
TKAQVIEAFKVFDRDGNGYVTVDYLRKVLNELGDMMPADEILEMIYEADPQNSGYVQYETFVGMLFL [E42L] | 3.16 kcal/mol
TKAQVIEAFKVFDRDGNGYVTVDYLRKVLNELGDMMPADEICEMIYEADPQNSGYVQYETFVGMLFL [E42C] | 3.11 kcal/mol
TKAQVIEAFKVFDRDGNGYVTVDYLRKVLNELGDMMPADEIGEMIYEADPQNSGYVQYETFVGMLFL [E42G] | 3.04 kcal/mol
TKAQVIEAFKVFDRDGNGYVTVDYLRKVLNELGDMMPADEITEMIYEADPQNSGYVQYETFVGMLFL [E42T] | 3.41 kcal/mol
TKAQVIEAFKVFDRDGNGYVTVDYLRKVLNELGDMMPADEINEMIYEADPQNSGYVQYETFVGMLFL [E42N] | 3.49 kcal/mol
TKAQVIEAFKVFDRDGNGYVTVDYLRKVLNELGDMMPADEIHEMIYEADPQNSGYVQYETFVGMLFL [E42H] | 3.01 kcal/mol
TKAQVIEAFKVFDRDGNGYVTVDYLRKVLNELGDMMPADEIVEMIYEADPQNSGYVQYETFVGMLFL [E42V] | 3.01 kcal/mol
TKAQVIEAFKVFDRDGNGYVTVDYLRKVLNELGDMMPADEIYEMIYEADPQNSGYVQYETFVGMLFL [E42Y] | 2.97 kcal/mol
TKAQVIEAFKVFDRDGNGYVTVDYLRKVLNELGDMMPADEISEMIYEADPQNSGYVQYETFVGMLFL [E42S] | 3.29 kcal/mol
TKAQVIEAFKVFDRDGNGYVTVDYLRKVLNELGDMMPADEIIEMIYEADPQNSGYVQYETFVGMLFL [E42I] | 3.25 kcal/mol
TKAQVIEAFKVFDRDGNGYVTVDYLRKVLNELGDMMPADEIFEMIYEADPQNSGYVQYETFVGMLFL [E42F] | 3.06 kcal/mol
TKAQVIEAFKVFDRDGNGYVTVDYLRKVLNELGDMMPADEIREMIYEADPQNSGYVQYETFVGMLFL [E42R] | 3.14 kcal/mol
TKAQVIEAFKVFDRDGNGYVTVDYLRKVLNELGDMMPADEIPEMIYEADPQNSGYVQYETFVGMLFL [E42P] | 2.64 kcal/mol
TKAQVIEAFKVFDRDGNGYVTVDYLRKVLNELGDMMPADEIAEMIYEADPQNSGYVQYETFVGMLFL [E42A] | 3.26 kcal/mol
TKAQVIEAFKVFDRDGNGYVTVDYLRKVLNELGDMMPADEIDEMIYEADPQNSGYVQYETFVGMLFL [E42D] | 3.37 kcal/mol
TKAQVIEAFKVFDRDGNGYVTVDYLRKVLNELGDMMPADEIKEMIYEADPQNSGYVQYETFVGMLFL [E42K] | 3.22 kcal/mol
TKAQVIEAFKVFDRDGNGYVTVDYLRKVLNELGDMMPADEIMEMIYEADPQNSGYVQYETFVGMLFL [E42M] | 3.3 kcal/mol
TKAQVIEAFKVFDRDGNGYVTVDYLRKVLNELGDMMPADEIEDMIYEADPQNSGYVQYETFVGMLFL [E43D] | 3.6 kcal/mol
TKAQVIEAFKVFDRDGNGYVTVDYLRKVLNELGDMMPADEIECMIYEADPQNSGYVQYETFVGMLFL [E43C] | 3.74 kcal/mol
TKAQVIEAFKVFDRDGNGYVTVDYLRKVLNELGDMMPADEIEAMIYEADPQNSGYVQYETFVGMLFL [E43A] | 3.81 kcal/mol
